Measured values from IntAct's records for PubMed 24613396.

B1: F-box only protein 11 (Homo sapiens), Q86XK2 (parent)
chain: MNSVRAANRRPRRVSRPRPVQQQQQQPPQQPPPQPPQQQPPQQQPPPPPQQQQQQQPPPPPPPPPPLPQERNNVGERDDDVPADMVAEESGPGAQNSPYQLRRKTLLPKRTACPTKNSMEGASTSTTENFGHRAKRARVSGKSQDLSAAPAEQYLQEKLPDEVVLKIFSYLLEQDLCRAACVCKRFSELANDPILWKRLYMEVFEYTRPMMHPEPGKFYQINPEEYEHPNPWKESFQQLYKGAHVKPGFAEHFYSNPARYKGRENMLYYDTIEDALGGVQEAHFDGLIFVHSGIYTDEWIYIESPITMIGAAPGKVADKVIIENTRDSTFVFMEGSEDAYVGYMTIRFNPDDKSAQHHNAHHCLEITVNCSPIIDHCIIRSTCTVGSAVCVSGQGACPTIKHCNISDCENVGLYITDHAQGIYEDNEISNNALAGIWVKNHGNPIIRRNHIHHGRDVGVFTFDHGMGYFESCNIHRNRIAGFEVKAYANPTVVRCEIHHGQTGGIYVHEKGRGQFIENKIYANNFAGVWITSNSDPTIRGNSIFNGNQGGVYIFGDGRGLIEGNDIYGNALAGIQIRTNSCPIVRHNKIHDGQHGGIYVHEKGQGVIEENEVYSNTLAGVWVTTGSTPVLRRNRIHSGKQVGVYFYDNGHGVLEDNDIYNHMYSGVQIRTGSNPKIRRNKIWGGQNGGILVYNSGLGCIEDNEIFDNAMAGVWIKTDSNPTLRRNKIHDGRDGGICIFNGGRGLLEENDIFRNAQAGVLISTNSHPILRKNRIFDGFAAGIEITNHATATLEGNQIFNNRFGGLFLASGVNVTMKDNKIMNNQDAIEKAVSRGQCLYKISSYTSYPMHDFYRCHTCNTTDRNAICVNCIKKCHQGHDVEFIRHDRFFCDCGAGTLSNPCTLAGEPTHDTDTLYDSAPPIESNTLQHN

Variants of: B1
Settings: with prdm1_human PRDM1, O75626
Chain of prdm1_human PRDM1, O75626 (O75626 whole entry): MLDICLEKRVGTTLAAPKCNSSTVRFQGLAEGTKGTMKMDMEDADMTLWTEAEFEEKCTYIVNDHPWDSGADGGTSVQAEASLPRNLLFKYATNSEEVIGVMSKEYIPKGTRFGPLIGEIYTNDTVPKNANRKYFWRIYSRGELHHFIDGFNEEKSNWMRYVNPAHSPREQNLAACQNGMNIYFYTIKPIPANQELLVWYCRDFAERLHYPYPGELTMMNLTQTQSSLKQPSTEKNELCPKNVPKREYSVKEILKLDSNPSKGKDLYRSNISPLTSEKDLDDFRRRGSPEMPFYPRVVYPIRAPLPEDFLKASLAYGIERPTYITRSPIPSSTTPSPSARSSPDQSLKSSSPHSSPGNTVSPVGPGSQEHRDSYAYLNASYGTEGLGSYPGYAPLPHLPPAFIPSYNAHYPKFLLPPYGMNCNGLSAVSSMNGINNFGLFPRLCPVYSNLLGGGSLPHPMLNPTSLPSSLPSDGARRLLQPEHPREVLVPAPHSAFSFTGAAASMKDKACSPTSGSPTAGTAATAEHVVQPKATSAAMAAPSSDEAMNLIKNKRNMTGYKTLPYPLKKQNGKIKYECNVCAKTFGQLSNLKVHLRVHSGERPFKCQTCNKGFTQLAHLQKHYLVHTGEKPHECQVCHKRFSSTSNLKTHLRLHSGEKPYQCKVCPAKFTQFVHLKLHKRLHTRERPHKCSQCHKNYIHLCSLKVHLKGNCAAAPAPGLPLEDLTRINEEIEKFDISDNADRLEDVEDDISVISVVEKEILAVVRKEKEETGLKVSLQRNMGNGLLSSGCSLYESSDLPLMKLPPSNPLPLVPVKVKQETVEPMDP

| effect of a mutation on the interaction | Variant |
| --- | --- |
| disrupting interaction strength | Q575L |
